Assay: yeast display, Sf9 membrane polyspecificity reagent, FACS + sequencing; frameworks hold sequencing errors
In short: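 Nanobodies came from a synthetic yeast display library in Saccharomyces cerevisiae BJ5465, induced with galactose for 36–48 hours and stained for 1 hour at 4 °C with 10% biotinylated, detergent-solubilized Sf9 membrane reagent. Cells were enriched on streptavidin microbeads and then FACS-sorted, with low and high (top ~1%) gates set on anti-HA fluorescence for expression and streptavidin fluorescence for reagent binding. Each polyreactivity label reflects the gate a clone came from. Genes were amplified by colony PCR, sequenced by MiSeq 2 × 250 and filtered by CDR length.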

Sequence	polyreactivity (PSR sort gate)
QVQLVESGGGLVQAGGSLRLSCAASGFIFSEYAMGWYRQAPGKDMELVAAISSGGNTYYADSVKGRFTISRDNAKNTVYLQMNSLKTEDTAVYYCNADNYAFYTQRPLDGSATYDYWGQGTQVTVSS	low polyreactivity
QVQLVESGGGLVQAGGSLRLSCAASGFIFSGNAMGWYRQAPGKERELVAAISGRGGRTYYADSVKGRFTISRDNAKNTVYLQMNSLKPEDTAVYYCAADNPYLGRKFDYWGQGTQVTVSS	high polyreactivity
QVQLVESGGGLVQAGGSLRLSCAASGFIFSGNAMGWYRQAPGKERELVAAISSGGSTNYADSVKGRFTISRDNAKNTVYLQMNSLKPEDTAVYYCNADSPERIPVDLENDYWGQGTQVTVSS	low polyreactivity
QVQLVESGGGLVQAGGSLRLSCAASGFIFSGNAMGWYRQAPGKERELVAAITRGGITYYADSVKGRFTISRDNAKNTVYLQMNSLKPEDTAVYYCNALGFGSNYDYWGQGTQVTVSS	high polyreactivity
QVQLVESGGGLVQAGGSLRLSCAASGFIFSGYAMGWYRQAPGKERELVAAITRSGSRTYYADSVKGRFTISRDNAKNTVYLQMNSLKPEDTAVYYCAKDKPKYGISTMDYWGQGTQVTVSS	high polyreactivity
QVQLVESGGGLVQAGGSLRLSCAASGFIFSHNAMGWYRQAPGKERELVAAISDGGGRTYYADSVKGRFTISRDNAKNTVYLQMNSLKPEDTEVYYCAVLWPYYERYYYWGQGTQVTVSS	high polyreactivity
QVQLVESGGGLVQAGGSLRLSCAASGFIFSKNVMGWYRQATGKERELVALINRSGGTTYYADSVKGRFTISRDNAKNTVYLQMNSLKPEDTAVYYCAARRYGYTSITWYDYLGQGTQVTVSS	high polyreactivity
QVQLVESGGGLVQAGGSLRLSCAASGFIFSKYGMGWYRQAPGKERELVAAISIRGGNTYYADSVKGRFTISRDNAKNTVYLQMNSLKPEDTAVYYCNALSYGRYLNYRGGMDYWGQGTQVTVSS	high polyreactivity
QVQLVESGGGLVQAGGSLRLSCAASGFIFSLNAMGWYRQAPGKEREFVASITWSGTRTYYADSVKGRFTISRDNAKNTVYLQMNSLKPEDTAVYYCAARTKRSYEYQAFYYWGQGTQVTVSS	high polyreactivity
QVQLVESGGGLVQAGGSLRLSCAASGFIFSNNAMGWYRQAHGKERELVAAISKSGGGTSYADSVKGRFTISRDNAKNTVYFQMNSLKPEDSAVYYCAARFRQFRVDYWGQGTQVTVSS	high polyreactivity
QVQLVESGGGLVQAGGSLRLSCAASGFIFSNNAMGWYRQAPGKERELVAAITASGGRTYYADSVKGRFTISRDNAKNTVYLQMNSLKPEDTSVYYCAAALYDIMGYWGQGTQLTVSS	high polyreactivity
QVQLVESGGGLVQAGGSLRLSCAASGFIFSNNAMGWYRQAPGKERELVAAITSSGGRTYYADSVKGRFTISRDNAKNTVYLQMNSLKPEDTAVYYCAAVWRTSVWTKYGYWGQGTQVTVSS	high polyreactivity
QVQLVESGGGLVQAGGSLRLSCAASGFIFSPNAMGWYRQAPGKEREFVAAIRYSGTSTSYADSVKGRFTISRDNAKNTVYLQMNSLKPEDTAVYYCNAQWRFSRGYTYNYWGQGTQVTVSS	high polyreactivity
QVQLVESGGGLVQAGGSLRLSCAASGFIFSPYAMGWYRQAPGKERELVAAISSGGSTYYADSVKGRFTISRDNAKNTVYLQMNSLKPEDTAVYYCAASWGRRKPRMDYWGLGTQVTVSS	high polyreactivity
QVQLVESGGGLVQAGGSLRLSCAASGFIFSPYVMGSYRQAPGKERELVAAISSIGGSTYYADSVKGRFTISRDNAKKTVYLQMNSLKPEDTAVYYCADSVYYYASRYDYWGQGTQVTVSS	low polyreactivity
QVQLVESGGGLVQAGGSLRLSCAASGFIFSQNTMGWYRQAPGKERELVAAISKSGGTTYYADSVKGRFTISRDNAKNTVYLQMNSLKPEDTAVYYCARDKGYVSYRYNYWGQGTQVTVSS	high polyreactivity

Sequence	polyreactivity (PSR sort gate)
QVQLVESGGGLVQAGGSLRLSCAASGFIFSRNAMGWYRQAPGKERELVAAISSTGGITYYADSVKGRFSISRDNAKNTVYLQMNSLKPEDTAVYYCAACFYGYARHTWYNYWGQGTQVTVSS	high polyreactivity
QVQLVESGGGLVQAGGSLRLSCAASGFIFSRYAMGWYRQAAGKERELVAAISYSGSSTYYADSVKGRFTISRDNAKNTVFLQMNSLKPEDTGVYYCNAVTQITGSSDGDYWGQGTQVTVSS	high polyreactivity
QVQLVESGGGLVQAGGSLRLSCAASGFIFSRYAMGWYRQAPGKERELVAAISIGGSTYYADSVKGRFTISRDNAKNTVYLQMNSLKPEDTAVYYCAVDYRHSSSWNAGPWEMYYWGQGTQVTVSS	low polyreactivity
QVQLVESGGGLVQAGGSLRLSCAASGFIFSRYFMGWYRQAPGKERELVAAISWNVGSTYYADSVKGRFTISRDNAKNTVYLQMNSLKPEDTAVYYCAARDRRSVTMDYWGHGTQVTVSS	high polyreactivity
QVQLVESGGGLVQAGGSLRLSCAASGFIFSSHAMGWYRQAPGKERELVAAISRSGGRTYYADSVKGRFTISRDNAKNTVYLQMNSLKPEDTAVYYCAAKRWWQYYWGQGTQVTVSS	high polyreactivity
QVQLVESGGGLVQAGGSLRLSCAASGFIFSSNAMGWYRQAPGKEREFVAAISFRGGTTYYADSVKRRFTISRDNAKNTVYLQLNSLKPEDTAVYYCNAVRWRSGRWWWYDYWGQGTQVTVSS	low polyreactivity
QVQLVESGGGLVQAGGSLRLSCAASGFIFSSNAMGWYRQAPGKERELVATISSDGSTNYADSVKGRFTISRDNAKNTVYLQMNSLKPEDTAVYYCAADLSLTIGTWTVLDTKYDYWGQGTQVTVSS	low polyreactivity
QVQLVESGGGLVQAGGSLRLSCAASGFIFSSNDMGWYRQAPGKERELVAAIDYSGGSTYYADSVKGRFTISRDNAKNTVYLQMNSLKPEDTAVYYCAATVYNPTDYYSPYYYWGQGTQVTGSS	low polyreactivity
QVQLVESGGGLVQAGGSLRLSCAASGFIFSSNTMGWYRQAPGKERELVADITSGARTNYADSVKGRFTISRDNAKNTVYLQMNSLKPEDTAVYYCAAYPHYIYFTWYPRYTYGYWGQGTQVTVSS	low polyreactivity
QVQLVESGGGLVQAGGSLRLSCAASGFIFSSYAMGWYRQAPGKEREFVASISASGGTTYYADSVKGRFTISRDNAKNTVYLQMNSLKPEDTAVYYCAAPWLDAEDYWGQGTQVTVSS	high polyreactivity
QVQLVESGGGLVQAGGSLRLSCAASGFIFSSYAMGWYRQAPGKEREFVAVISTGGGSTYYADSVKGRFTISRDNAKITVYLQMNSLKPEDTAVYYCAAKLYDSGGRYWYDYWGQGTQVTVSS	high polyreactivity
QVQLVESGGGLVQAGGSLRLSCAASGFIFSSYAMGWYRQAPGKERELVAAISRSGGRTYYADSVKGRFTISRDNAKNTVYLQMNSLKPEDTAVYYCAAKWLGTAGDDYWGQGTQVTVSS	high polyreactivity
QVQLVESGGGLVQAGGSLRLSCAASGFIFSTYAMGWYRQAPGKERELVSAISCSTGSTYYADSVKGRFTISRDNAKNTVYLQMNSLKPEDTAVYYCNALRRPSTEGRDYWGQGTQVTVSS	high polyreactivity
QVQLVESGGGLVQAGGSLRLSCAASGFIFSVNAMGWYRQAPGKERELVAAISTNTGRTYYADSVKGRFTISRDNAKNTVYLQMNSLKPEDTAVYYCAADGPTYWAVRGDYWGQGTQVTVSS	low polyreactivity
QVQLVESGGGLVQAGGSLRLSCAASGFIFSVNTMGSYRQAPGKERELVAAISGSGGSTYYADSVKGRFTISRDNAKNTVYLQMNSLKPEDTAVYYCAARYTVTYDYWGQGTQVTVSS	high polyreactivity
QVQLVESGGGLVQAGGSLRLSCAASGFIFSVYAMGWYRQAPGKEREFVAAIRWSGGSTYYADSVKGRFTISRDNAKNTVYLQMNSLKPEDTAVYYCAARARDLYGYWGQGTQVTVSS	high polyreactivity
